In PMC2987766 one finds percent reduction of binding against pH 8.0, percent of binding prevented by heparin 0.25 ug/ml and percent reduction of binding against undigested PlnDI data, which are given here for one substance.

For assay [1], the target named is Recombinant perlecan domain I (PlnDI), undigested (UniProt Q05793). Kind of assay: far-Western, overlay or dot blot; solution phase, pH 6.0: PlnDI (5 ug) pre-incubated with 20 ng VEGF165 for 1 hr at room temperature (25 mM HEPES), then blotted onto nitrocellulose; bound VEGF165 detected with anti-VEGF165 antibodies; background subtracted.
Assay [2] shares this target. Kind of assay: far-Western, overlay or dot blot; solid phase: PlnDI, undigested or pre-digested with heparinase cocktail +/- chondroitinase ABC, immobilised on nitrocellulose and incubated with VEGF165; bound VEGF165 detected with VEGF monoclonal antibodies, densitometry; heparin 0.25 ug/ml for competitive inhibition.
Assay [3] addresses PlnDI pre-digested with a heparinase cocktail (heparinases I, II and III). Described as above.
Assay [4] deals with Recombinant perlecan domain I (PlnDI), undigested (UniProt Q05793). Kind of assay: far-Western, overlay or dot blot; solution phase, pH 7.0: PlnDI (5 ug), untreated or pre-digested with heparinase cocktail and/or chondroitinase ABC, pre-incubated with 20 ng VEGF165 for 1 hr at room temperature (25 mM HEPES), then blotted onto nitrocellulose; bound VEGF165 detected with anti-VEGF165 antibodies; background subtracted.

“Recombinant human vascular endothelial growth factor-165 (ligand)”: the percent reduction of binding against pH 8.0 in assay [1] is 80%; in assay [4], 50%. For the same substance, in assay [2], the percent of binding prevented by heparin 0.25 ug/ml is 80%. The substance also yielded a percent reduction of binding against undigested PlnDI in assay [3] of 75%.
